Laboratory results reported in patent US20230242902A1, “A HIGHLY ERROR-PRONE […] R[…] FOR TARGETED CONTINUOUS EVOLUTION IN VIVO” (The Regents of the University of California, priority 2017, published 2023).
Numbering of substitutions follows the chain as printed. Numbers in names are those of the source.

B1: F304R: TP-DNAP1 variant (protein)
chain: MDYKDKALNDLRNVYADFDSLPLDFRQILIKDRATLLQKEDVEKKILERQEDAKKYAEYLKQSEIPERISLPNIKRHKGVSISFEETSEDMVLEPRPFIFDGLNIRCFRRETIFSLKNKILNMVKESSSFKNVSRQSVSFMYFKIFNKGKVIASTKSVNIYEDKIDERLEDLCNNFDDVLKKIIDVTYGYESLFVSETYSYVIFYAKSIYFPQPRCVNNWGNNIPNILTFDSFKLFTANKNNVSCIKQCSRFLWQKDFNTLEEMIEYKNGNICIVTPQLHINDVRDIKSFNDIRLYSESPIKTRSVIDNTITYLFYFKEHLGVIFNITKSRHDRRVTKFSPLSKFSDVKNITVCFDIESYFDPEKESNQVNIPFICCASIIYNKVIGNIVDFEGRDCVAQMIEYVVDICGELNISSVELIAHNGGGYDFHYILSSMYNPAAIKNILIRNNSFISFNFAHDGVKFSVKDSYSFLLCSLANASKAFLNEETFKKTDFPHHDLKTADDLYKVYKEWSSVNTEINHVVEKEKLLITSEHIVNFTKNDKSKTLIEWSKDYCRNDVLVLSKVWLEFKNAVEDIFNCELVDQTMTLAGLSYKLFQANMPFDVELRHPNKEDYFNMREALIGGRCISVNGIYKDVLCLDVKSLYPASMAFYDQPYGSFKRVSSRPKDELGIYYVRVTPNRNNKSNFFPIRSHNKITYNNFEESTYIAWYTNVDIDIGLSEGHNIEYIPFDSYGNIGYSWSKKGKIFEKYIKDVLYKLKIKYEKQNNKVKRNVIKIIMNSLWGKFAQKWVNFEYFIKSEDDIDFESEEAYKIWDTDFMLIKKIKESTYSSKPIQNGVFTLSWARYHMKSIWDAGAKEGAECIYSDTDSIFVHKEHFKKNAKFMLNGLKVPIIGSEVGQLELECEFDKLLCAGKKQYMGFYTYFQDGKPCIKEKKRFKGIPSNYIIPELYAHLLSGADKEAKIQFLKFRREWGSVKGYIENKTVKAT
B2: I311M: TP-DNAP1 variant (protein)
chain: B1 chain with R304F, I311M
B3: T312E: TP-DNAP1 variant (protein)
chain: B1 chain with R304F, T312E
B4: I311G: TP-DNAP1 variant (protein)
chain: B1 chain with R304F, I311G
B5: D333V: TP-DNAP1 variant (protein)
chain: B1 chain with R304F, D333V
B6: S330R: TP-DNAP1 variant (protein)
chain: B1 chain with R304F, S330R
B7: T312Q: TP-DNAP1 variant (protein)
chain: B1 chain with R304F, T312Q
B8: T310D: TP-DNAP1 variant (protein)
chain: B1 chain with R304F, T310D
B9: D333M: TP-DNAP1 variant (protein)
chain: B1 chain with R304F, D333M
B10: T310H: TP-DNAP1 variant (protein)
chain: B1 chain with R304F, T310H
B11: T310F: TP-DNAP1 variant (protein)
chain: B1 chain with R304F, T310F
B12: D333N, K344R: TP-DNAP1 variant (protein)
chain: B1 chain with R304F, D333N, K344R
B13: D308Q: TP-DNAP1 variant (protein)
chain: B1 chain with R304F, D308Q
B14: I307L: TP-DNAP1 variant (protein)
chain: B1 chain with R304F, I307L
B15: Y316R: TP-DNAP1 variant (protein)
chain: B1 chain with R304F, Y316R
B16: N309K, I311G: TP-DNAP1 variant (protein)
chain: B1 chain with R304F, N309K, I311G
B17: Y313W: TP-DNAP1 variant (protein)
chain: B1 chain with R304F, Y313W
B18: K365N: TP-DNAP1 variant (protein)
chain: B1 chain with R304F, K365N
B19: T310E: TP-DNAP1 variant (protein)
chain: B1 chain with R304F, T310E
B20: D333N: TP-DNAP1 variant (protein)
chain: B1 chain with R304F, D333N
B21: S305N: TP-DNAP1 variant (protein)
chain: B1 chain with R304F, S305N
B22: I311A: TP-DNAP1 variant (protein)
chain: B1 chain with R304F, I311A
B23: Y382V: TP-DNAP1 variant (protein)
chain: B1 chain with R304F, Y382V
B24: I311D: TP-DNAP1 variant (protein)
chain: B1 chain with R304F, I311D
B25: T310W: TP-DNAP1 variant (protein)
chain: B1 chain with R304F, T310W
B26: I372C: TP-DNAP1 variant (protein)
chain: B1 chain with R304F, I372C
B27: I327Q: TP-DNAP1 variant (protein)
chain: B1 chain with R304F, I327Q
B28: S305G: TP-DNAP1 variant (protein)
chain: B1 chain with R304F, S305G
B29: I311N: TP-DNAP1 variant (protein)
chain: B1 chain with R304F, I311N
B30: Y313V: TP-DNAP1 variant (protein)
chain: B1 chain with R304F, Y313V
B31: Y313F: TP-DNAP1 variant (protein)
chain: B1 chain with R304F, Y313F
B32: T310N: TP-DNAP1 variant (protein)
chain: B1 chain with R304F, T310N
B33: Y313H: TP-DNAP1 variant (protein)
chain: B1 chain with R304F, Y313H
B34: D333T: TP-DNAP1 variant (protein)
chain: B1 chain with R304F, D333T
B35: Y382A: TP-DNAP1 variant (protein)
chain: B1 chain with R304F, Y382A
B36: D333A: TP-DNAP1 variant (protein)
chain: B1 chain with R304F, D333A
B37: Y313M: TP-DNAP1 variant (protein)
chain: B1 chain with R304F, Y313M
B38: F304Y: TP-DNAP1 variant (protein)
chain: B1 chain with R304Y
B39: N309C: TP-DNAP1 variant (protein)
chain: B1 chain with R304F, N309C

System: p1
Assay: p1 copy number by p1-encoded mKate2 fluorescence
Assay type: cell-based, S. cerevisiae
Settings: OR-Y24, measured in triplicate
Method in brief: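 Yeast OR-Y24 strains carrying TP-DNAP1 variants were grown to saturation from a 1:10,000 dilution, and p1-encoded mKate2 fluorescence was measured by flow cytometry (ex/em 561/620 nm). Values were converted to copy number via a linear calibration against qPCR of p1-encoded LEU2 versus genomic LEU3, or by plate-reader OD600-normalized fluorescence relative to w.t. TP-DNAP1.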

Molecule | Mean fold-increase over w.t. (p1 copy number)
B1 | 3.49 fold
B2 | 2.26 fold
B3 | 2.29 fold
B4 | 2.05 fold
B5 | 2.18 fold
B6 | 2.21 fold
B7 | 2.85 fold
B8 | 2.64 fold
B9 | 2.6 fold
B10 | 2.57 fold
B11 | 2.66 fold
B12 | 2.07 fold
B13 | 2.15 fold
B14 | 2.76 fold
B15 | 2.46 fold
B16 | 2.2 fold
B17 | 2.15 fold
B18 | 1.89 fold
B19 | 2.37 fold
B20 | 2.07 fold

Molecule | Mean fold-increase over w.t. (p1 copy number)
B21 | 2.3 fold
B22 | 2.19 fold
B23 | 1.62 fold
B24 | 1.86 fold
B25 | 2.48 fold
B26 | 1.73 fold
B27 | 2.15 fold
B28 | 2.53 fold
B29 | 2.55 fold
B30 | 2.48 fold
B31 | 2.11 fold
B32 | 2.83 fold
B33 | 3.08 fold
B34 | 2.41 fold
B35 | 1.6 fold
B36 | 1.57 fold
B37 | 1.94 fold
B38 | 2.41 fold
B39 | 2.25 fold
